Substitutions are numbered along the chain they refer to.
B1: DQN0344H0976/L0591//DQN0385H1270/L0681-F6 (bispecific antibody)
heavy 1: QVQLVESGGGVVQPGGSLRLSCAASGFTFSSAYWMVWVRQAPGQGLEWMGAVYGGSDTTYYAKWTEGRFTISRDTSKNTLYLQMNSLRAEDTAVYYCAREPLNYYYYGELNLWGQGTLVTVSSASTKGPSVFPLAPSSKSTSGGTAALGCLVKDYFPEPVTVSWNSGALTSGVHTFPAVLKSSGLYSLSSVVTVPSSSLGTQTYICNVNHKPSNTKVDKRVEPKSCDKTHTCPPCPAPELRRGPSVFLFPPKPKDTLMISRTPEVTCVVVDVSHEDPEVKFNWYVDGVEVHNAKTKPREEQYNSTYRVVSVLTVLHQDWLNGKEYKCKVSNKALPAPIEKTISKAKGQPREPQVYTLPPSREEMTKNQVSLTCLVKGFYPSDIAVEWESNGQPENNYKTTPPYLDSDGSFFLYSKLTVDKSRWQEGNVFSCSVLHEALHAHYTREELSLSP
light 1: DIQMTQSPSSLSASVGDRVTITCQATEEIYSGLAWYQQKPGKAPKLLIYYVSTLYEGIPARFSGSGSGTDFTLTISSLEPEDFAVYYCQTYEDVSAVTFGQGTKVEIKRTVAAPSVFIFPPSDEQLKSGTAEVVCLLNNFYPREAKVQWKVDNALQSGNSEESVTEQDSKDSTYSLSSTLTLSKADYEKHKVYACEVTHQGLSSPVTKSFNRGEC
heavy 2: QVQLVESGGGVVQPGRSLRLSCAASGFTFSEWYFMSWVRQAPGKGLEWVASIDTGSGSIDYAEWVEGRFTISRDNSKNTLYLQMNSLRAEDTAVYYCARDIGIDYNFWGPGTLVTVSSASTKGPSVFPLAPSSKSTSGGTAALGCLVEDYFPEPVTVSWNSGALTSGVHTFPAVLESSGLYSLSSVVTVPSSSLGTKTYICNVNHKPSNTKVDKRVEPKSCDKTHTCPPCPAPELRRGPSVFLFPPKPKDTLMISRTPEVTCVVVDVSHEDPEVKFNWYVDGVEVHNAKTKPREEQYNSTYRVVSVLTVLHQDWLNGKEYKCKVSNKALPAPIEKTISKAKGQPREPQVYTLPPSRKEMTKNQVSLTCLVKGFYPSDIAVEWESNGQPENNYKTTPPYLDSDGSFFLYSKLTVDKSRWQQGNVFSCSVLHEALHAHYTRKELSLSP
light 2: DIQMTQSPSSLSASVGDRVTITCQTTQSISSYLNWYQQKPGQPPKLLIYYASTKAEGIPARFSGSGLGTDFTLTISSLEPEDFAVYYCHYGISKVSFGQGTKVEIKRTVAAPSVFIFPPSDEQLKSGTAKVVCLLNNFYPREAKVQWKVDNALQSGNSKESVTEQDSKDSTYSLSSTLTLSKADYEKHKVYACEVTHQGLSSPVTKSFNRGEC
B2: DQN0344H0976/L0591//DQN0385H1255/L0605-F6 (bispecific antibody)
heavy 1: B1 heavy 1
light 1: B1 light 1
heavy 2: B1 heavy 2 with E63G, G67E
light 2: B1 light 2 with L67S
B3: DQN0344H1013/L0620//DQN0385H1270/L0681-F6 (bispecific antibody)
heavy 1: B1 heavy 1 with G16R, L112V
light 1: B1 light 1 with E28N, Y55A, E56Y
heavy 2: B1 heavy 2
light 2: B1 light 2
B4: DQN0344H0976/L0591//DQN0385H1527/L0605-F6 (bispecific antibody)
heavy 1: B1 heavy 1
light 1: B1 light 1
heavy 2: B1 heavy 2 with S30A, E31S
light 2: B1 light 2 with L67S
B5: DQN0344H0976/L0591//DQN0385H1270/L0722-F6 (bispecific antibody)
heavy 1: B1 heavy 1
light 1: B1 light 1
heavy 2: B1 heavy 2
light 2: B1 light 2 with E79Q
B6: DQN0344H0976/L0591//DQN0385H1352/L0681-F6 (bispecific antibody)
heavy 1: B1 heavy 1
light 1: B1 light 1
heavy 2: B1 heavy 2 with T28E
light 2: B1 light 2
B7: DQN0344H1013/L0620//DQN0385H1353/L0681-F6 (bispecific antibody)
heavy 1: B1 heavy 1 with G16R, L112V
light 1: B1 light 1 with E28N, Y55A, E56Y
heavy 2: B1 heavy 2 with S30A
light 2: B1 light 2
B8: DQN0344H0976/L0591//DQN0385H1255/L0605-F6.v2 (bispecific antibody)
heavy 1: B1 heavy 1 with Y403V
light 1: B1 light 1
heavy 2: B1 heavy 2 with E63G, G67E, Y398V
light 2: B1 light 2 with L67S

Biological target: T1, HLA-DQ2.5 on IHW09023 cells loaded with 33mer gliadin peptide (human; wheat)
Experiment: cell-based or functional assay

Binder	IC50 (ng/mL), α1b gliadin TCR, 250 nM 33mer gliadin [ng/mL]	IC50 (ng/mL), α2 gliadin TCR, 250 nM 33mer gliadin [ng/mL]	IC50 (ng/mL), α1a gliadin TCR, 250 nM 33mer gliadin [ng/mL]
B1	1.36	0.34	
B2	2.66	0.56	0.49
B3	1.78	0.33	0.38
B4	1.84	0.51	0.7
B5	1.41	0.31	0.38
B6	1.37	0.31	0.29
B7	1.13	0.34	0.29

Biological target: T2, HLA-DQ2.5 on IHW09023 cells loaded with omega1/2 gliadin peptide (human; wheat)
Experiment: cell-based or functional assay

Binder	IC50 (ng/mL), ω1 gliadin TCR, 25 µM ω1/2 gliadin [ng/mL]	IC50 (ng/mL), ω2 gliadin TCR, 250 nM ω1/2 gliadin [ng/mL]
B1	2.07	0.26
B2	2.62	0.25
B3	2.51	0.2
B4	3.25	0.3
B5	2.55	0.26
B6	1.48	0.24
B7	1.17	0.17

Biological target: T3, HLA-DQ2.5 on IHW09023 cells loaded with BC hordein peptide (human; barley)
Experiment: cell-based or functional assay

Binder	IC50 (ng/mL), BC hordein TCR, 250 nM BC hordein [ng/mL]
B1	12
B2	13.6
B3	7.54
B4	6.54
B5	13.2
B6	10.8
B7	8.78

Biological target: T4, HLA-DQ2.5 on IHW09023 cells loaded with gamma 1 gliadin peptide (human; wheat)
Experiment: cell-based or functional assay

Binder	IC50 (ng/mL), γ1 gliadin TCR, 250 nM γ1 gliadin [ng/mL]
B1	1.05
B2	0.91
B3	1.11
B4	0.59
B5	0.66
B6	1.11
B7	0.56

Biological target: T5, HLA-DQ2.5 on IHW09023 cells loaded with gamma 2 gliadin peptide (human; wheat)
Experiment: cell-based or functional assay

Binder	IC50 (ng/mL), γ2 gliadin TCR, 250 nM γ2 gliadin [ng/mL]
B1	182
B2	440
B3	322
B4	637
B5	281
B6	284
B7	100

Biological target: T6, HLA-DQ2.5 on IHW09023 cells loaded with gamma 3 gliadin peptide (human; wheat)
Experiment: cell-based or functional assay

Binder	IC50 (ng/mL), γ3 gliadin TCR, 100 µM γ3 gliadin [ng/mL]
B1	2.4
B2	2.31
B3	2.63
B4	2.09
B5	2.88
B6	2.99
B7	2.29

Biological target: T7, HLA-DQ2.5 on IHW09023 cells loaded with gamma 4a gliadin peptide (human; wheat)
Experiment: cell-based or functional assay

Binder	IC50 (ng/mL), γ4a gliadin TCR, 25 µM γ4a gliadin [ng/mL]
B1	749
B2	1430
B3	1160
B4	1210
B5	726
B6	802
B7	1250

Biological target: T8, HLA-DQ2.5 on IHW09023 cells loaded with gamma 4d gliadin peptide (human; wheat)
Experiment: cell-based or functional assay

Binder	IC50 (ng/mL), γ4d gliadin TCR, 100 µM γ4d gliadin [ng/mL]
B1	11.8
B2	12.4
B3	13.1
B4	11.4
B5	16.3
B6	9.82
B7	2.06

Biological target: T1, HLA-DQ2.5 on IHW09023 cells loaded with …
Experiment: cell-based or functional assay
Remark: another data set of the same source

Binder	IC50 (ng/mL), α1a gliadin TCR, 250 nM 33mer gliadin [ng/mL]	IC50 (ng/mL), α1b gliadin TCR, 250 nM 33mer gliadin [ng/mL]	IC50 (ng/mL), α2 gliadin TCR, 250 nM 33mer gliadin [ng/mL]
B8	0.46	1.33	0.29

Biological target: T2, HLA-DQ2.5 on IHW09023 cells loaded with …
Experiment: cell-based or functional assay
Remark: another data set of the same source

Binder	IC50 (ng/mL), ω1 gliadin TCR, 25 µM ω1/2 gliadin [ng/mL]	IC50 (ng/mL), ω2 gliadin TCR, 250 nM ω1/2 gliadin [ng/mL]
B8	1.62	0.18

Biological target: T3, HLA-DQ2.5 on IHW09023 cells loaded with …
Experiment: cell-based or functional assay
Remark: another data set of the same source

Binder	IC50 (ng/mL), BC hordein TCR, 250 nM BC hordein [ng/mL]
B8	9.52

Biological target: T4, HLA-DQ2.5 on IHW09023 cells loaded with …
Experiment: cell-based or functional assay
Remark: another data set of the same source

Binder	IC50 (ng/mL), γ1 gliadin TCR, 250 nM γ1 gliadin [ng/mL]
B8	1.62

Biological target: T5, HLA-DQ2.5 on IHW09023 cells loaded with …
Experiment: cell-based or functional assay
Remark: another data set of the same source

Binder	IC50 (ng/mL), γ2 gliadin TCR, 250 nM γ2 gliadin [ng/mL]
B8	252

Biological target: T6, HLA-DQ2.5 on IHW09023 cells loaded with …
Experiment: cell-based or functional assay
Remark: another data set of the same source

Binder	IC50 (ng/mL), γ3 gliadin TCR, 100 µM γ3 gliadin [ng/mL]
B8	1.55

Biological target: T7, HLA-DQ2.5 on IHW09023 cells loaded with …
Experiment: cell-based or functional assay
Remark: another data set of the same source

Binder	IC50 (ng/mL), γ4a gliadin TCR, 25 µM γ4a gliadin [ng/mL]
B8	636

Biological target: T8, HLA-DQ2.5 on IHW09023 cells loaded with …
Experiment: cell-based or functional assay
Remark: another data set of the same source

Binder	IC50 (ng/mL), γ4d gliadin TCR, 100 µM γ4d gliadin [ng/mL]
B8	8.69

Biological target: HLA-DQ2.2 on HBBB2.2 cells loaded with 33mer gliadin peptide (human; wheat)
Experiment: cell-based or functional assay

Binder	IC50 (ng/ml)_HLA-DQ2.2, α1a gliadin TCR, 25 µM 33mer gliadin [ng/mL]	IC50 (ng/ml)_HLA-DQ2.2, α2 gliadin TCR, 1 µM 33mer gliadin [ng/mL]
B8	1.72	9.48

Biological target: T9, HLA-DQ5.1 on Ba/F3 cells (human, limits assumed)
T9 construct: whole, on cells; also called Ba/F3-HLA-DQ5.1
T9 MHC II alpha: not shown
T9 MHC II beta: not shown
Experiment: FACS, Ba/F3 cells; raw MFI

Binder	binding result
B7	no binding (tested: 0.05 micro g/mL)

Biological target: T10, HLA-DQ6.3 on Ba/F3 cells (human, UniProt P01920 33-230, limits assumed)
T10 construct: whole, on cells; also called Ba/F3-HLA-DQ6.3
T10 MHC II alpha: not shown
T10 MHC II beta: not shown
Experiment: FACS, Ba/F3 cells; raw MFI

Binder	binding result
B7	no binding (tested: 0.05 micro g/mL)

Biological target: T11, HLA-DP on Ba/F3 cells (human, UniProt P20036 29-222; P04440 30-225, limits assumed)
T11 construct: whole, on cells; also called Ba/F3-HLA-DP
T11 sequence (P20036 29-222 limits assumed, chain 1 of 4, other chains not shown): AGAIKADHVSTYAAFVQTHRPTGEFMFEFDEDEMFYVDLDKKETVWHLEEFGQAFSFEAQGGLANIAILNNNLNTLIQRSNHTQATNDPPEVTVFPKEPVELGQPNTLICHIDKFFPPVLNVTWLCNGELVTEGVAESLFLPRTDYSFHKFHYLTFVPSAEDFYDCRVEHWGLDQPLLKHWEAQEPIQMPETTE
T11 sequence (P04440 30-225 limits assumed, chain 2 of 4, other chains not shown): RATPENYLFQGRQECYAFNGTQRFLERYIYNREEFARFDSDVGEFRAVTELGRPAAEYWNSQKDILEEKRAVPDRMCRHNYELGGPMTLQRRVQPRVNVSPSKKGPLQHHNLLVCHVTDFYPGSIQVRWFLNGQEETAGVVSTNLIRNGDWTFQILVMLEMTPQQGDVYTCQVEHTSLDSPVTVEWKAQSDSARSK
Experiment: FACS, Ba/F3 cells; raw MFI

Binder	binding result
B7	no binding (tested: 0.05 micro g/mL)

— patent publication US20240400693A1 (Chugai, published 2024)
